Test results as given in PMC9482650, “Quantitative fragmentomics allow affinity mapping of interactomes” (Nature Communications, 2022).

B1: TRAF7, Q6Q0C0 (peptide)
chain: VDSTVKVWTC
B2: BPIFA2, Q96DR5 (peptide)
chain: QHKTQLQTLI
B3: BAZ1A, Q9NRL2 (peptide)
chain: TPPAAKKSRI
B4: CTNNA1, P35221 (peptide)
chain: LSEFKAMDSI
B5: KCNA1, Q09470 (peptide)
chain: VNKSKLLTDV

What follows are binders tested against AHNAK1, Q09666 (assay: holdup assay). Conditions: plain residues with an end cap or a label only (N-terminal biotin on a linker: ado-ado).
Sequence of AHNAK1, Q09666 (Q09666 4-100): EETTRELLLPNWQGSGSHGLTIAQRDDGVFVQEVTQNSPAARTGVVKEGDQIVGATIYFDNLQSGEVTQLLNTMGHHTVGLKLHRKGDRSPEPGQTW
Parameters: key: below the threshold = too weak to quantify, mostly under pKd 3.1 to 4

Binder | pKd
B1 | below the threshold
B2 | below the threshold
B3 | below the threshold
B4 | below the threshold
B5 | below the threshold

These binders were tested against T1, APBA1_1, Q02410 (assay: holdup assay). Conditions: plain residues with an end cap or a label only (N-terminal biotin on a linker: ado-ado).
T1 sequence (Q02410 651-752, limits assumed, looked up): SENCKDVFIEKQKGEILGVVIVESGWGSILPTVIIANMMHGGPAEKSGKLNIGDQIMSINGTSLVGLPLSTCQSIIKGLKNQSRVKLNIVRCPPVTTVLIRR
Parameters: key: below the threshold = too weak to quantify, mostly under pKd 3.1 to 4

Binder | pKd
B1 | below the threshold
B2 | below the threshold
B3 | below the threshold
B4 | below the threshold
B5 | below the threshold

The binders below were run against T2, APBA3_1, O96018 (assay: holdup assay). Conditions: plain residues with an end cap or a label only (N-terminal biotin on a linker: ado-ado).
T2 sequence (O96018 389-490, limits assumed, looked up): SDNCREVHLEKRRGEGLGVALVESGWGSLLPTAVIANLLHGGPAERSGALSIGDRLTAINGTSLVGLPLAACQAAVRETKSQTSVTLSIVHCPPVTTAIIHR
Parameters: key: below the threshold = too weak to quantify, mostly under pKd 3.1 to 4

Binder | pKd
B1 | below the threshold
B2 | below the threshold
B3 | below the threshold
B4 | below the threshold
B5 | below the threshold

What follows are binders tested against T3, ARHGAP21, Q5T5U3 (assay: holdup assay). Conditions: plain residues with an end cap or a label only (N-terminal biotin on a linker: ado-ado).
T3 sequence (Q5T5U3 45-169, limits assumed, looked up): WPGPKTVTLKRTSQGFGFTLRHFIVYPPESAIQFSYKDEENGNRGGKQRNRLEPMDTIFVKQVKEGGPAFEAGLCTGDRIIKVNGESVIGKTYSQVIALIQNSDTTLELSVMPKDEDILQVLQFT
Parameters: key: below the threshold = too weak to quantify, mostly under pKd 3.1 to 4

Binder | pKd
B1 | 4.36
B2 | 4.01
B3 | 3.58
B4 | 4.01
B5 | below the threshold

What follows are binders tested against DLG2_2, Q15700 (assay: holdup assay). Conditions: plain residues with an end cap or a label only (N-terminal biotin on a linker: ado-ado).
Sequence of DLG2_2, Q15700 (Q15700 189-283): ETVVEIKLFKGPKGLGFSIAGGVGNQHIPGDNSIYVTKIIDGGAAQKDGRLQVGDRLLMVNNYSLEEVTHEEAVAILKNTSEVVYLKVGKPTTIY
Parameters: key: below the threshold = too weak to quantify, mostly under pKd 3.1 to 4

Binder | pKd
B1 | 3.72
B2 | 4.32
B3 | 3.65
B4 | below the threshold
B5 | 4.29

The binders below were run against T4, DLG3_3, Q92796 (assay: holdup assay). Conditions: plain residues with an end cap or a label only (N-terminal biotin on a linker: ado-ado).
T4 sequence (Q92796 374-475, limits assumed, looked up): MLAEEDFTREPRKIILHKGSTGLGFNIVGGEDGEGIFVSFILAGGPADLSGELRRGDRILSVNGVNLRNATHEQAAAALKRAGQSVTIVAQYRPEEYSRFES
Parameters: key: below the threshold = too weak to quantify, mostly under pKd 3.1 to 4

Binder | pKd
B1 | below the threshold
B2 | below the threshold
B3 | below the threshold
B4 | below the threshold
B5 | below the threshold

The binders below were run against T5, FRMPD1, Q5SYB0 (assay: holdup assay). Conditions: plain residues with an end cap or a label only (N-terminal biotin on a linker: ado-ado).
T5 sequence (Q5SYB0 52-145, limits assumed, looked up): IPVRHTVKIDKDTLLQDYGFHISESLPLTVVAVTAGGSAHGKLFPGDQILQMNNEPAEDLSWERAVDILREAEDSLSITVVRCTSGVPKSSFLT
Parameters: key: below the threshold = too weak to quantify, mostly under pKd 3.1 to 4

Binder | pKd
B1 | below the threshold
B2 | below the threshold
B3 | below the threshold
B4 | below the threshold
B5 | below the threshold

What follows are binders tested against FRMPD2_1, Q68DX3 (assay: holdup assay). Conditions: plain residues with an end cap or a label only (N-terminal biotin on a linker: ado-ado).
Sequence of FRMPD2_1, Q68DX3 (Q68DX3 770-861): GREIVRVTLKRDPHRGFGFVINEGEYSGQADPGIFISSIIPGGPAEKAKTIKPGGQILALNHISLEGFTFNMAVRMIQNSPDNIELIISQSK
Parameters: key: below the threshold = too weak to quantify, mostly under pKd 3.1 to 4

Binder | pKd
B1 | 4.45
B2 | below the threshold
B3 | below the threshold
B4 | below the threshold
B5 | below the threshold

What follows are binders tested against GRID2IP_1, A4D2P6 (assay: holdup assay). Conditions: plain residues with an end cap or a label only (N-terminal biotin on a linker: ado-ado).
Sequence of GRID2IP_1, A4D2P6 (A4D2P6 1-87): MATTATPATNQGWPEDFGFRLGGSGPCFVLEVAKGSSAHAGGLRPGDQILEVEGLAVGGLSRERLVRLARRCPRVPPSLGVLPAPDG
Parameters: key: below the threshold = too weak to quantify, mostly under pKd 3.1 to 4

Binder | pKd
B1 | below the threshold
B2 | below the threshold
B3 | below the threshold
B4 | below the threshold
B5 | below the threshold

What follows are binders tested against Inadl_2, Q8NI35 (assay: holdup assay). Conditions: plain residues with an end cap or a label only (N-terminal biotin on a linker: ado-ado).
Sequence of Inadl_2, Q8NI35 (Q8NI35 238-335): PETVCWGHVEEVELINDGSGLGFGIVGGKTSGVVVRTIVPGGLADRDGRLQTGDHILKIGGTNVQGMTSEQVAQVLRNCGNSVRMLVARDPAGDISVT
Parameters: key: below the threshold = too weak to quantify, mostly under pKd 3.1 to 4

Binder | pKd
B1 | 3.65
B2 | below the threshold
B3 | below the threshold
B4 | below the threshold
B5 | below the threshold

The binders below were run against Inadl_4, Q8NI35 (assay: holdup assay). Conditions: plain residues with an end cap or a label only (N-terminal biotin on a linker: ado-ado).
Sequence of Inadl_4, Q8NI35 (Q8NI35 547-651): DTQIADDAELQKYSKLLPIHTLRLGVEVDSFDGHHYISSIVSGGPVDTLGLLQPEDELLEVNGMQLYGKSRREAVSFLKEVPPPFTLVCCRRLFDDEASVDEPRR
Parameters: key: below the threshold = too weak to quantify, mostly under pKd 3.1 to 4

Binder | pKd
B1 | below the threshold
B2 | below the threshold
B3 | below the threshold
B4 | below the threshold
B5 | below the threshold

What follows are binders tested against Inadl_8, Q8NI35 (assay: holdup assay). Conditions: plain residues with an end cap or a label only (N-terminal biotin on a linker: ado-ado).
Sequence of Inadl_8, Q8NI35 (Q8NI35 1425-1530): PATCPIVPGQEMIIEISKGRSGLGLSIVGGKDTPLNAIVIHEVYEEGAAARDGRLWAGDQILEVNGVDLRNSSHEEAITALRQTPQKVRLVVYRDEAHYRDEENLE
Parameters: key: below the threshold = too weak to quantify, mostly under pKd 3.1 to 4

Binder | pKd
B1 | below the threshold
B2 | 3.54
B3 | 4.35
B4 | below the threshold
B5 | 3.91

The binders below were run against LDB3, O75112 (assay: holdup assay). Conditions: plain residues with an end cap or a label only (N-terminal biotin on a linker: ado-ado).
Sequence of LDB3, O75112 (O75112 1-94): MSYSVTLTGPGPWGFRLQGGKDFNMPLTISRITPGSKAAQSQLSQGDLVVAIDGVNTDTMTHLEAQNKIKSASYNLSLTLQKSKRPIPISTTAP
Parameters: key: below the threshold = too weak to quantify, mostly under pKd 3.1 to 4

Binder | pKd
B1 | below the threshold
B2 | below the threshold
B3 | below the threshold
B4 | below the threshold
B5 | below the threshold

Each binder was assayed against T6, LIN7C, Q9NUP9 (assay: holdup assay). Conditions: plain residues with an end cap or a label only (N-terminal biotin on a linker: ado-ado).
T6 sequence (Q9NUP9 88-185, limits assumed, looked up): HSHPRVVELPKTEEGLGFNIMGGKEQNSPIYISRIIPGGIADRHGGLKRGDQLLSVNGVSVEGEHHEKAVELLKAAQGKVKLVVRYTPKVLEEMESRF
Parameters: key: below the threshold = too weak to quantify, mostly under pKd 3.1 to 4

Binder | pKd
B1 | below the threshold
B2 | below the threshold
B3 | below the threshold
B4 | below the threshold
B5 | below the threshold

The binders below were run against T7, LNX2_3, Q8N448 (assay: holdup assay). Conditions: plain residues with an end cap or a label only (N-terminal biotin on a linker: ado-ado).
T7 sequence (Q8N448 463-564, limits assumed, looked up): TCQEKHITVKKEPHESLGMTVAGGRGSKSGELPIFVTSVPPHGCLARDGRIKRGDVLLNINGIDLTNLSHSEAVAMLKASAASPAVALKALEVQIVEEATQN
Parameters: key: below the threshold = too weak to quantify, mostly under pKd 3.1 to 4

Binder | pKd
B1 | below the threshold
B2 | below the threshold
B3 | below the threshold
B4 | below the threshold
B5 | below the threshold

The binders below were run against T8, LRRC7, Q96NW7 (assay: holdup assay). Conditions: plain residues with an end cap or a label only (N-terminal biotin on a linker: ado-ado).
T8 sequence (Q96NW7 1440-1537, limits assumed, looked up): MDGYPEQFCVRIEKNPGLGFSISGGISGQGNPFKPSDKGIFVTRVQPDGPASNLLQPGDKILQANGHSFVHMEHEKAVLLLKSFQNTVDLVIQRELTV
Parameters: key: below the threshold = too weak to quantify, mostly under pKd 3.1 to 4

Binder | pKd
B1 | below the threshold
B2 | below the threshold
B3 | below the threshold
B4 | below the threshold
B5 | below the threshold

Each binder was assayed against MAGI2_3, Q86UL8 (assay: holdup assay). Conditions: plain residues with an end cap or a label only (N-terminal biotin on a linker: ado-ado).
Sequence of MAGI2_3, Q86UL8 (Q86UL8 600-682): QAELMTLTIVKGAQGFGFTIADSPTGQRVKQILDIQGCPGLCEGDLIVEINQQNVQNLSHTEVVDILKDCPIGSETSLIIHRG
Parameters: key: below the threshold = too weak to quantify, mostly under pKd 3.1 to 4

Binder | pKd
B1 | below the threshold
B2 | below the threshold
B3 | below the threshold
B4 | below the threshold
B5 | below the threshold

Each binder was assayed against MAGI2_4, Q86UL8 (assay: holdup assay). Conditions: plain residues with an end cap or a label only (N-terminal biotin on a linker: ado-ado).
Sequence of MAGI2_4, Q86UL8 (Q86UL8 772-865): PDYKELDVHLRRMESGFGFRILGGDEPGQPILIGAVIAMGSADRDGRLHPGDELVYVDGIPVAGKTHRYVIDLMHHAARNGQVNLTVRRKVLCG
Parameters: key: below the threshold = too weak to quantify, mostly under pKd 3.1 to 4

Binder | pKd
B1 | below the threshold
B2 | 4.05
B3 | 3.71
B4 | below the threshold
B5 | 3.79

The binders below were run against MAGI3_2, Q5TCQ9 (assay: holdup assay). Conditions: plain residues with an end cap or a label only (N-terminal biotin on a linker: ado-ado).
Sequence of MAGI3_2, Q5TCQ9 (Q5TCQ9 398-503): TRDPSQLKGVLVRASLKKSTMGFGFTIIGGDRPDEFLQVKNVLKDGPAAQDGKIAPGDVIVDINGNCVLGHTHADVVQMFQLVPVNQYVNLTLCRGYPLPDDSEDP
Parameters: key: below the threshold = too weak to quantify, mostly under pKd 3.1 to 4

Binder | pKd
B1 | below the threshold
B2 | 4.54
B3 | below the threshold
B4 | below the threshold
B5 | 4.16

The binders below were run against NHERF4_1, Q86UT5-2 (assay: holdup assay). Conditions: plain residues with an end cap or a label only (N-terminal biotin on a linker: ado-ado).
Sequence of NHERF4_1, Q86UT5-2 (Q86UT5 other isoform, or with tags, fused parts or gaps): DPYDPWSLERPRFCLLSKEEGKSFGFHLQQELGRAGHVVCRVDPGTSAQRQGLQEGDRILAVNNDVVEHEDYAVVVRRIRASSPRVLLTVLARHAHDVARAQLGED
Parameters: key: below the threshold = too weak to quantify, mostly under pKd 3.1 to 4

Binder | pKd
B1 | 3.67
B2 | 3.85
B3 | below the threshold
B4 | below the threshold
B5 | below the threshold

The binders below were run against NHERF4_2, Q86UT5 (assay: holdup assay). Conditions: plain residues with an end cap or a label only (N-terminal biotin on a linker: ado-ado).
Sequence of NHERF4_2, Q86UT5 (Q86UT5 220-308): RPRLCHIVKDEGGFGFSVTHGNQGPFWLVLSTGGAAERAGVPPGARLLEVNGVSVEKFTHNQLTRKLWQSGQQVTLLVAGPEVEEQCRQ
Parameters: key: below the threshold = too weak to quantify, mostly under pKd 3.1 to 4

Binder | pKd
B1 | below the threshold
B2 | below the threshold
B3 | below the threshold
B4 | below the threshold
B5 | below the threshold

The binders below were run against PARD3_3, Q8TEW0 (assay: holdup assay). Conditions: plain residues with an end cap or a label only (N-terminal biotin on a linker: ado-ado).
Sequence of PARD3_3, Q8TEW0 (Q8TEW0 582-685): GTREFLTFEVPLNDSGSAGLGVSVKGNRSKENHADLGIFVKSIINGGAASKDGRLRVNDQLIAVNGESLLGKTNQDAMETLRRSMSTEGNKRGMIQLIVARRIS
Parameters: key: below the threshold = too weak to quantify, mostly under pKd 3.1 to 4

Binder | pKd
B1 | 4.66
B2 | 3.83
B3 | below the threshold
B4 | below the threshold
B5 | below the threshold

Each binder was assayed against PDLIM1, O00151 (assay: holdup assay). Conditions: plain residues with an end cap or a label only (N-terminal biotin on a linker: ado-ado).
Sequence of PDLIM1, O00151 (O00151 1-87): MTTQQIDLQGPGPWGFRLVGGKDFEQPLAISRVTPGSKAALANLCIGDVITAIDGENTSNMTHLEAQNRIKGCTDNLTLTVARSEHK
Parameters: key: below the threshold = too weak to quantify, mostly under pKd 3.1 to 4

Binder | pKd
B1 | below the threshold
B2 | below the threshold
B3 | below the threshold
B4 | below the threshold
B5 | below the threshold

What follows are binders tested against PTPN3, P26045 (assay: holdup assay). Conditions: plain residues with an end cap or a label only (N-terminal biotin on a linker: ado-ado).
Sequence of PTPN3, P26045 (P26045 505-587): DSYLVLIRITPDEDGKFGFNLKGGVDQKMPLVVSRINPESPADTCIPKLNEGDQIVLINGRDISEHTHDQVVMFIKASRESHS
Parameters: key: below the threshold = too weak to quantify, mostly under pKd 3.1 to 4

Binder | pKd
B1 | 4.13
B2 | 3.99
B3 | 3.93
B4 | 3.97
B5 | 3.65

Each binder was assayed against T9, RAPGEF6, Q8TEU7 (assay: holdup assay). Conditions: plain residues with an end cap or a label only (N-terminal biotin on a linker: ado-ado).
T9 sequence (Q8TEU7 525-625, limits assumed, looked up): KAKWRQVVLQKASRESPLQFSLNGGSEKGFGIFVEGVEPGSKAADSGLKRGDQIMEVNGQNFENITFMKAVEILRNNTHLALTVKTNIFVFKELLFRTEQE
Parameters: key: below the threshold = too weak to quantify, mostly under pKd 3.1 to 4

Binder | pKd
B1 | 3.57
B2 | below the threshold
B3 | 3.53
B4 | below the threshold
B5 | 3.53

What follows are binders tested against T10, SHANK1, Q9Y566 (assay: holdup assay). Conditions: plain residues with an end cap or a label only (N-terminal biotin on a linker: ado-ado).
T10 sequence (Q9Y566 658-767, limits assumed, looked up): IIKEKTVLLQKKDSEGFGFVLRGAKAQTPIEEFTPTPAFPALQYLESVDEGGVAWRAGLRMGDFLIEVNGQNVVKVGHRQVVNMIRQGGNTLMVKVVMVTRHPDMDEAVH
Parameters: key: below the threshold = too weak to quantify, mostly under pKd 3.1 to 4

Binder | pKd
B1 | below the threshold
B2 | 4.02
B3 | 3.53
B4 | below the threshold
B5 | below the threshold

These binders were tested against T11, TJP3_3, O95049 (assay: holdup assay). Conditions: plain residues with an end cap or a label only (N-terminal biotin on a linker: ado-ado).
T11 sequence (O95049 375-456, limits assumed, looked up): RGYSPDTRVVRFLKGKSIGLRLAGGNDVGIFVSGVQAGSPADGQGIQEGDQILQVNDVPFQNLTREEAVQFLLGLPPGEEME
Parameters: key: below the threshold = too weak to quantify, mostly under pKd 3.1 to 4

Binder | pKd
B1 | below the threshold
B2 | below the threshold
B3 | below the threshold
B4 | below the threshold
B5 | below the threshold
